The values below come from PMC10896721.

Assay [1] concerns the target cynomolgus monkey GLP-1R (cynomolgus monkey).
Assay [2] addresses human GLP-1R (glucagon-like peptide-1 receptor) (human) (UniProt P43220).
A further assay concerns the target mouse GLP-1R (mouse) (UniProt O35659).
The target of assay [3] is T1, human GIPR (glucose-dependent insulinotropic polypeptide receptor) (human) (UniProt P48546).
T1 sequence: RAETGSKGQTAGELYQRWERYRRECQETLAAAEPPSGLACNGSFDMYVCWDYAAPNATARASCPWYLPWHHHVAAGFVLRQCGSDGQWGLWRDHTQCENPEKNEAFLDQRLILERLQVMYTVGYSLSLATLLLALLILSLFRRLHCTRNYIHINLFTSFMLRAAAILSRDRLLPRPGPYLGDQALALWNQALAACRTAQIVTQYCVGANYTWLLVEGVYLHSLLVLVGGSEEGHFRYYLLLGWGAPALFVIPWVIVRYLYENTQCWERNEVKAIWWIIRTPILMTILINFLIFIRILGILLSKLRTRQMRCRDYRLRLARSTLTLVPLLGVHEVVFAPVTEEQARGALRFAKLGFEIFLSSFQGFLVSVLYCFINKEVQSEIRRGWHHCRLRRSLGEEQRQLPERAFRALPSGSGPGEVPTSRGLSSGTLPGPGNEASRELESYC

Chain of AMG 133 (maridebart cafraglutide) (VH): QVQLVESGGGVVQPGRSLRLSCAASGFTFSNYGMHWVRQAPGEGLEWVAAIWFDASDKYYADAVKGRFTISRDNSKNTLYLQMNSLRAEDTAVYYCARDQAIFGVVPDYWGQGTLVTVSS
Chain of AMG 133 (maridebart cafraglutide) (VL): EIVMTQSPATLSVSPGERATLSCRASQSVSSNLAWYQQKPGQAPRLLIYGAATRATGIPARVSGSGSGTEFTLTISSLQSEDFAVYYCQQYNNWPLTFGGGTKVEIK
Chain of UniProt P43220 (P43220 24-463): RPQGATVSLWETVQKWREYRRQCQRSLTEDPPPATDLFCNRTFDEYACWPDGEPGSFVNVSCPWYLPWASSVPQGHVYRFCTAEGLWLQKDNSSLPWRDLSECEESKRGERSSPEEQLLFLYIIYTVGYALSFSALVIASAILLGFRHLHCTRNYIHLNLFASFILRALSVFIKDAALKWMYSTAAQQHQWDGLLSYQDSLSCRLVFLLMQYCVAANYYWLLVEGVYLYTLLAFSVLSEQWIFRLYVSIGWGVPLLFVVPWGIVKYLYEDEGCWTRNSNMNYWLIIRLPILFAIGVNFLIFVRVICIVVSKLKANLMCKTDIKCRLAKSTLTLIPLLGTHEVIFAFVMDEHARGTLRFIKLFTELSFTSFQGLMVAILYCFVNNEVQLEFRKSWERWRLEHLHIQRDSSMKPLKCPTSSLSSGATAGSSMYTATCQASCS
Chain of UniProt O35659 (O35659 22-463): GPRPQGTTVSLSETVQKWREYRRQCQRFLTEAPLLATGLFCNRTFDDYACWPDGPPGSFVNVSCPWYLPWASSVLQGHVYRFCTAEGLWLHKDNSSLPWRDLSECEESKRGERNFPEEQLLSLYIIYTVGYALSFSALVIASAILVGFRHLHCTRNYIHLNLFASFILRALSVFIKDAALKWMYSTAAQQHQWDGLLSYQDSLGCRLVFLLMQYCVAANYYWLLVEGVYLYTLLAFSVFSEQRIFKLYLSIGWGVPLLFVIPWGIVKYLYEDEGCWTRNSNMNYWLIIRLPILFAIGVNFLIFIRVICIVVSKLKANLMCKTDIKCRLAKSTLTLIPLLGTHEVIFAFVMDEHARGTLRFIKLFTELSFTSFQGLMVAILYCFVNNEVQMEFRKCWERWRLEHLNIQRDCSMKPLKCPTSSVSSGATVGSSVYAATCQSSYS

Regarding AMG 133 (maridebart cafraglutide), the EC50 of cAMP accumulation in CHO-AM1D cells expressing cynomolgus monkey GLP-1R in assay [1] was 0.0057 nM. This substance came in with an EC50 of cAMP accumulation in CHO-K1 cells expressing human GLP-1R in assay [2] of 0.0244 nM. Also, the EC50 of cAMP accumulation in CHO-K1 cells expressing mouse GLP-1R with mouse GLP-1R (mouse) was 0.123 nM.
In assay [3], “Native GIP (glucose-dependent insulinotropic polypeptide) (from UniProt P09681 52-93) (ligand)” had an EC50 of cAMP accumulation in HEK 293T cells expressing human GIPR of 0.0066 nM.
